Assay results: US20140242080A1 (Hoffmann-La Roche, published 2014)

T1: muFcγRIV-aviHis-biotin (murine, UniProt A0A0B4J1G0 21-203, Biotinylated at the avi tag (tag not included in the letters))
T1 construct: Captured by anti-Penta His antibody; also called murine FcγRIV; not shown: exact C-terminal limit of the soluble construct
T1 sequence: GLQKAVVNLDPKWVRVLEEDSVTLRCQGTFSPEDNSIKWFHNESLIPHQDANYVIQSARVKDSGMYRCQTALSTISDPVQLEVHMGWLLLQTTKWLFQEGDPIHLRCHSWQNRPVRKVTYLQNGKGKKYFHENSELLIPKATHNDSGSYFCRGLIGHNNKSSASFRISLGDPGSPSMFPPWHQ

T2: hu-MCSP(D3 domain)-avi-his (human, UniProt Q6UVK1 1582-2224)
T2 construct: Recombinant D3 domain with avi and his tags; also called human MCSP(D3 domain)-avi-his; Human MCSP D3
T2 sequence: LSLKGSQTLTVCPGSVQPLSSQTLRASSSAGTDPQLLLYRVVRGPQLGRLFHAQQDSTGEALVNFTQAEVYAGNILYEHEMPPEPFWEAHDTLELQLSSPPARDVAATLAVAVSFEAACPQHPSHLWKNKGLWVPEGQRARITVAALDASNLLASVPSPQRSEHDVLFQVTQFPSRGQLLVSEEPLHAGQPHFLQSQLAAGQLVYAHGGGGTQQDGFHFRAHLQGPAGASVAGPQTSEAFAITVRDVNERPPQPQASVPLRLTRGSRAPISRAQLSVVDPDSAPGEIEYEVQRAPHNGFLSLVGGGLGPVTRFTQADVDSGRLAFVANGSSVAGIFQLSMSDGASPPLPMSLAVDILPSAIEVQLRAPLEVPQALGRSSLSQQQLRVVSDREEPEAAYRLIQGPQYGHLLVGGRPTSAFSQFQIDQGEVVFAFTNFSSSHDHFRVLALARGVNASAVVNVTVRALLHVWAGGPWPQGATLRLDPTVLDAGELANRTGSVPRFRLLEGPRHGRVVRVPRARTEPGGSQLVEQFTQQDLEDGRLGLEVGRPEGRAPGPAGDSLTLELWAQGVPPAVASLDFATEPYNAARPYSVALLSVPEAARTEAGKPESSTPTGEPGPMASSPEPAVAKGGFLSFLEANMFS

T3: cynomolgus MCSP D3 (cynomolgus, UniProt Q6UVK1 1582-2224 (human entry), limits assumed)
T3 construct: also called Cyno MCSP; cynomolgus homologue
T3 chain: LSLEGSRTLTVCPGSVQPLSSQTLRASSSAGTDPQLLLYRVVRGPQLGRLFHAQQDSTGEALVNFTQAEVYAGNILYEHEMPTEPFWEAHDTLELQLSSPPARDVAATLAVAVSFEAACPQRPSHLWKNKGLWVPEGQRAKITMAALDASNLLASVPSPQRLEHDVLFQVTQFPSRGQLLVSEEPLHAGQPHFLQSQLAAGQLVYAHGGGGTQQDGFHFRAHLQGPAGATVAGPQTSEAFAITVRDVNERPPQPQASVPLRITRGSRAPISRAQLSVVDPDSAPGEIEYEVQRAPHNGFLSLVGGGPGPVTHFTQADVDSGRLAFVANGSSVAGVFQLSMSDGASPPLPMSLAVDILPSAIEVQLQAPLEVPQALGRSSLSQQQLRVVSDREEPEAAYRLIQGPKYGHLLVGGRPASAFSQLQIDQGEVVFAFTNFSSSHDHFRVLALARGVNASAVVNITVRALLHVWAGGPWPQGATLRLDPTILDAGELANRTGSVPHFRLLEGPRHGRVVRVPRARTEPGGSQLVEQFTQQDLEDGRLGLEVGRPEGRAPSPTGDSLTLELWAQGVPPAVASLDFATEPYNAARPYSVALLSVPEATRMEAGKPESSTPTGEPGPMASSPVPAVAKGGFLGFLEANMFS

T4: murine MCSP D3 (murine, UniProt Q8VHY0 1587-2218, limits assumed)
T4 construct: also called recombinant murine MCSP D3
T4 sequence: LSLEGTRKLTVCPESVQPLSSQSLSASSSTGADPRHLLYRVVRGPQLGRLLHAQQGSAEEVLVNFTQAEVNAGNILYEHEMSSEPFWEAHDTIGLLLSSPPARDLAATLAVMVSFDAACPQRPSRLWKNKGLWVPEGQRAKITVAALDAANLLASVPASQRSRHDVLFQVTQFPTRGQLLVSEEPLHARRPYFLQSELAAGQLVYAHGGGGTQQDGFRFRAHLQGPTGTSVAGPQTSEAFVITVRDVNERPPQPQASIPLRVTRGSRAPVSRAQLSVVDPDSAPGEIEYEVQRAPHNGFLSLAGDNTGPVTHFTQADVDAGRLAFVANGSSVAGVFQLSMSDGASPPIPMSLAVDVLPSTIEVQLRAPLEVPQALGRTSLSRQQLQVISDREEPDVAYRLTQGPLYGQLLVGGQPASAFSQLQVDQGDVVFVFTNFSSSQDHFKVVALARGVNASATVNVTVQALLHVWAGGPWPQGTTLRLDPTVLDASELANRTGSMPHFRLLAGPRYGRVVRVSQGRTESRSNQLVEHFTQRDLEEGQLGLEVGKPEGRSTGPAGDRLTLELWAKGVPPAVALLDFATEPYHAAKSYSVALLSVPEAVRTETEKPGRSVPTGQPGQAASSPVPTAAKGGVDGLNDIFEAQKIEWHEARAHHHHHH

B1: “2+1 IgG scFab, wt” (anti-MCSP/anti-huCD3) (bispecific antibody)
chain 1: DIVLTQSPSSLSASLGDRVTISCSASQGIRNYLNWYQQRPDGTVKLLIYYTSSLHSGVPSRFSGSGSGTDYSLTISNLEPEDIATYYCQQYSKLPWTFGGGTKLEIKRTVAAPSVFIFPPSDEQLKSGTASVVCLLNNFYPREAKVQWKVDNALQSGNSQESVTEQDSKDSTYSLSSTLTLSKADYEKHKVYACEVTHQGLSSPVTKSFNRGEC
chain 2: not shown
chain 3: not shown
notes: Wild-type Fc domain; also called Fc-wt; copies: 2 + 1 + 1
B2: MCSP TCB (2+1 Crossfab-IgG P329G LALA inverted) (bispecific antibody)
light 1: not shown
light 2: QAVVTQEPSLTVSPGGTVTLTCGSSTGAVTTSNYANWVQEKPGQAFRGLIGGTNKRAPGTPARFSGSLLGGKAALTLSGAQPEDEAEYYCALWYSNLWVFGGGTKLTVLSSASTKGPSVFPLAPSSKSTSGGTAALGCLVKDYFPEPVTVSWNSGALTSGVHTFPAVLQSSGLYSLSSVVTVPSSSLGTQTYICNVNHKPSNTKVDKKVEPKSC
heavy 1: not shown
heavy 2: QVQLQESGPGLVKPSQTLSLTCTVSGGSITSGYYWNWIRQHPGKGLEWIGYITFDGSNNYNPSLKSRVTISRDTSKNQFSLKLSSVTAADTAVYYCADFDYWGQGTLVTVSSASTKGPSVFPLAPSSKSTSGGTAALGCLVKDYFPEPVTVSWNSGALTSGVHTFPAVLQSSGLYSLSSVVTVPSSSLGTQTYICNVNHKPSNTKVDKKVEPKSCDKTHTCPPCPAPEAAGGPSVFLFPPKPKDTLMISRTPEVTCVVVDVSHEDPEVKFNWYVDGVEVHNAKTKPREEQYNSTYRVVSVLTVLHQDWLNGKEYKCKVSNKALGAPIEKTISKAKGQPREPQVCTLPPSRDELTKNQVSLSCAVKGFYPSDIAVEWESNGQPENNYKTTPPVLDSDGSFFLVSKLTVDKSRWQQGNVFSCSVMHEALHNHYTQKSLSLSPGK
notes: also called MCSP TCB antibody; MCSP CD3 bispecific antibody

How the values were obtained:
HuFcγRIIIa-V158-K6H6 [1] = molecular target: T5, HuFcγRIIIa-V158-K6H6 (human, UniProt P08637 17-208, limits assumed); test: SPR Biacore T100, 25 C; receptor captured via anti-Penta His, construct as analyte; steady state
T5 construct: His-tagged recombinant receptor captured by anti-Penta His antibody; also called human FcγRIIIa-V158; human FcγRIIIa
Protocol: (§1) For analyzing interaction of different Fc-variants with human FcγRIIIa-V158 and murine FcγRIV direct coupling of around 6,500 resonance units (RU) of the anti-Penta His antibody (Qiagen) is performed on a CM5 chip at pH 5.0 using the standard amine coupling kit (Biacore, Freiburg/Germany). HuFcγRIIIa-V158-K6H6 and muFcγRIV-aviHis-biotin are captured for 60 s at 4 and 10 nM respectively.
(§2) Constructs with different Fc-mutations are passed through the flow cells for 120 s at a concentration of 1000 nM with a flow rate of 30 μl/min. The dissociation is monitored for 220 s. Bulk refractive index differences are corrected for by subtracting the response obtained in a reference flow cell. […] Affinity for human FcγRIIIa-V158 and murine FcγRIV was determined for wild-type Fc using a concentration range from 500-4000 nM.
(§3) The steady state response was used to derive the dissociation constant KD by non-linear curve fitting of the Langmuir binding isotherm. Kinetic constants were derived using the Biacore T100 Evaluation Software (vAA, Biacore AB, Uppsala/Sweden), to fit rate equations for 1:1 Langmuir binding by numerical integration.

muFcγRIV-aviHis-biotin [2] = molecular target: T1, muFcγRIV-aviHis-biotin; test: as above
Protocol: as §1, §2, §3

HuFcγRIIIa-V158-K6H6 [3] = molecular target: T5, HuFcγRIIIa-V158-K6H6; test: SPR Biacore T100, 25 C; receptor captured via anti-Penta His, construct as analyte; kinetic, one concentration (1000 nM)
Protocol: as §1, §2

HuFcγRIIIa-V158-K6H6 [4] = molecular target: T5, HuFcγRIIIa-V158-K6H6; test: SPR Biacore T100, 25 C; receptor captured via anti-Penta His, construct as analyte; kinetic, value in brackets not explained
Protocol: as §1, §2, §3

muFcγRIV-aviHis-biotin [5] = molecular target: T1, muFcγRIV-aviHis-biotin; test: SPR Biacore T100, 25 C; receptor captured via anti-Penta His, construct as analyte; kinetic
Protocol: as §1, §2, §3

[6] = molecular target: T2, hu-MCSP(D3 domain)-avi-his; test: SPR Biacore T100, 25 C; TCB captured via anti-human Fab, antigen as analyte
Protocol: (§4) Surface plasmon resonance (SPR) experiments were performed on a Biacore T100 at 25° C. with HBS-EP as running buffer (0.01 M HEPES pH 7.4, 0.15 M NaCl, 3 mM EDTA, 0.005% Surfactant P20, Biacore, Freiburg/Germany).
(§5) Capture IgG was coupled to the sensorchip surface by direct immobilization of around 7,500 resonance units (RU) at pH 5.0 using the standard amine coupling kit (Biacore, Freiburg/Germany). […] Since the interaction with murine MCSP (SEQ ID NO: 380) was expected to be weak the concentration range for this antigen was chosen between 3.9 and 500 nM. The dissociation for all interactions was monitored for 120 s. Bulk refractive index differences were corrected for by subtracting the response obtained on a reference flow cell.
(§6) Kinetic constants were derived using the Biacore T200 Evaluation Software (vAA, Biacore AB, Uppsala/Sweden), to fit rate equations for 1:1 Langmuir binding by numerical integration. […] The half-life (t_{1/2}) of the interaction was calculated using following formula: t_{1/2}=ln 2/koff.

[7] = molecular target: T6, human CD3ε stalk-Fc (knob)-Avi/CD3δ-stalk-Fc(hole) (human); test: as above
T6 construct: also called Human CD3ε/CD3δ; recombinant CD3ε/CD3δ
Protocol: as §4, §5, §6

cynomolgus MCSP D3 [8] = molecular target: T3, cynomolgus MCSP D3; test: as above
Protocol: as §4, §5, §6

murine MCSP D3 = molecular target: T4, murine MCSP D3; test: SPR Biacore T100, 25 C; TCB captured via anti-human Fab, antigen as analyte; steady state
Protocol: as §5, §6

[9] = molecular target: T2, hu-MCSP(D3 domain)-avi-his; test: SPR Biacore T100, 25 C; t1/2 = ln 2/koff
Protocol: as §5, §6

[10] = molecular target: T6, human CD3ε stalk-Fc …; test: SPR Biacore T100, 25 C; t1/2 = ln 2/koff
Protocol: as §5, §6

cynomolgus MCSP D3 [11] = molecular target: T3, cynomolgus MCSP D3; test: SPR Biacore T100, 25 C; t1/2 = ln 2/koff
Protocol: as §5, §6

T5 sequence (P08637 17-208 F176V limits assumed): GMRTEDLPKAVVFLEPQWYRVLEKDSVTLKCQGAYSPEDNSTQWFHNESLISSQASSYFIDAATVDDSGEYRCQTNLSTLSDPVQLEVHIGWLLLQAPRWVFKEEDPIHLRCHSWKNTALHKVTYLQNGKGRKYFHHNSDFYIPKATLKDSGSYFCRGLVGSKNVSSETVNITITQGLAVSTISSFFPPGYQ
T6 sequence (chain, as listed by the source mutant limits assumed, chain 1 of 2): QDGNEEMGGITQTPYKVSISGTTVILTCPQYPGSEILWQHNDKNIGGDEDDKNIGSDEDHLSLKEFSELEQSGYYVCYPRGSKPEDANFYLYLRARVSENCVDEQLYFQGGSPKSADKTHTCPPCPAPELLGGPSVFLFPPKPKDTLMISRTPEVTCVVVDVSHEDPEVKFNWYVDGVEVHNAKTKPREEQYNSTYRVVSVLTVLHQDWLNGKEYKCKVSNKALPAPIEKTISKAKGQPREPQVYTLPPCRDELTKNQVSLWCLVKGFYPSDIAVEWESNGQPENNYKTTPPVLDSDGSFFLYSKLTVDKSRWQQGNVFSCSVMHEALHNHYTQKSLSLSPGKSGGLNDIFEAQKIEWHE
T6 sequence (chain, as listed by the source mutant limits assumed, chain 2 of 2): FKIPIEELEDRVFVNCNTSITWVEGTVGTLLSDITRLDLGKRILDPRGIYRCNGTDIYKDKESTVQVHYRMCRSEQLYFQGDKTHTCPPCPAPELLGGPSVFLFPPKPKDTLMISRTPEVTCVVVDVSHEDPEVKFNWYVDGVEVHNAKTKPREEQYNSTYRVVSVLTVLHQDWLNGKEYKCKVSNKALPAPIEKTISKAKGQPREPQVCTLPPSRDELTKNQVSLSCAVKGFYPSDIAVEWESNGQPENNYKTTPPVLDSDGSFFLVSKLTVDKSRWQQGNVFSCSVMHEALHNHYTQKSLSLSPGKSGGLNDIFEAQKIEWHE

Row | Binder | Kd (HuFcγRIIIa-V158-K6H6 [1]) [µM] | Kd (muFcγRIV-aviHis-biotin [2]) [nM] | Kd (HuFcγRIIIa-V158-K6H6 [3]) [nM] | Kd (HuFcγRIIIa-V158-K6H6 [4]) [nM] | Kd (muFcγRIV-aviHis-biotin [5]) [nM] | Kd [6] [nM] | Kd [7] [nM] | Kd (cynomolgus MCSP D3 [8]) [nM] | Kd (murine MCSP D3) [nM] | t1/2 [9] [min] | t1/2 [10] [min] | t1/2 (cynomolgus MCSP D3 [11]) [min]
1 | B1 | 3.47 | 1500 | 600 | 1200 | 576 | – | – | – | – | – | – | –
2 | B2 | – | – | – | – | – | 0.15 | 78.7 | 0.12 | 1570 | 205 | 2.9 | 263
